Test system: Saccharomyces cerevisiae PS128 hsf1 delta, HSF1(1-493) fusion
Experiment: growth estimate (transactivation domain function in HSF1 fusion, heat-shock survival) (a.u. (slope of normalised read count over time)); higher = stronger growth at 37°C, i.e. more transactivation activity
Conditions: library: design library
Summary of the method: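 The growth estimate is the slope, from a robust linear fit over time, of read counts scaled to sample totals and starting count. These counts came from Illumina MiSeq sequencing of PCR-amplified inserts, run as six barcoded replicates of one experiment. The inserts encoded designed transactivation-domain oligos fused to yeast HSF1 (amino acids 1–493) in an hsf1-deleted strain, replica-plated on –trp 5-FOA plates and incubated at 30°C or 37°C for 0, 2, 4, 6 and 8 days.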

| Sequence | growth estimate |
| --- | --- |
| DRLSWIIELLEKDG | < -0.25 |
| PEFPKIELQELQELQALLQQ | < -0.25 |
| VADDIWEEALSEDL | -0.233 |
| LFRYDFLFGNDFA | -0.0535 |
| EDLYSILWSAVY | -0.107 |
| QQNGEIAQLWDFR | -0.245 |
| PFPDTQDDFLKWPRSEEAQ | < -0.25 |
| TMDDVRNYLFDD | < -0.25 |
| EDLYSALWSDVY | 0.125 |
| EDPDEFSLWDSML | 1.36 |
| EFKDLLDLDFILSN | 0.512 |
| EDLYSILKSDVY | < -0.25 |
| VGDDIWEELLSEDL | 1.59 |
| EDLRSILWSDVY | < -0.25 |
| EFNDLLDLDPILSN | -0.247 |
| TMDDVYNYLPDD | < -0.25 |
| PRFPGIELQELQELQALLQQ | < -0.25 |
| PEFPGIELQELQELQALRQQ | -0.168 |
| PEFPGIELQELQELPALLQQ | < -0.25 |
| QKNGEIAQLWDFN | < -0.25 |
| QQNGEIAQGWDFN | -0.247 |
| EDLYSILWSDVP | 0.204 |
| DEASWIIELLEKDG | -0.123 |
| LFDYDFLFKNDFA | 2.06 |

| Sequence | growth estimate |
| --- | --- |
| VADDIWEELPSEDL | < -0.25 |
| TMDDVYPYLFDD | 0.27 |
| VADDIWEGLLSEDL | 0.676 |
| TMDDVYNYLFDR | -0.243 |
| EFGDLLDLDFILSN | 0.032 |
| MLSSHGFSVDPSALLDLFSP | -0.0885 |
| EDDDEFSLWASML | 2.21 |
| EFNDLLDLDFALSN | 3.84 |
| DFDGDMLGDFDLDMLG | 1.92 |
| PEFPGIELQELQELQGLLQQ | < -0.25 |
| MLSSHGFSVDTSALLDLFSA | -0.127 |
| DFDLDMLGDFDLDMLP | 22.2 |
| PEFPGIELQELQELQALLQG | -0.0522 |
| DELSWIIELLKKDG | -0.239 |
| GEFPGIELQELQELQALLQQ | -0.114 |
| KFNDLLDLDFILSN | 0.326 |
| DFALDMLGDFDLDMLG | 3.21 |
| PEFPGIRLQELQELQALLQQ | -0.249 |
| PFPDTQDDFLKGWRSEEAQ | -0.242 |
| DLDGSWDYIFETTE | 0.41 |
| DKLSWIIELLEKDG | < -0.25 |
| DFDLDMLGDFDLDMLA | 1.83 |
| EDGYSILWSDVY | -0.236 |
| EDDDEFSLWDKML | -0.201 |

| Sequence | growth estimate |
| --- | --- |
| DELSWIRELLEKDG | 1.03 |
| EDLKSILWSDVY | < -0.25 |
| EDDDEFSLWDSPL | 0.011 |
| LFDYDFLFGNDFA | 6.94 |
| QQNGEIAQLWKFN | < -0.25 |
| EFNDLLDLDRILSN | 0.151 |
| EDRDEFSLWDSML | 0.0908 |
| VADDIWEELLSKDL | 2.92 |
| LFDYDFLFGNDRA | 0.389 |
| PFPDTQADFLKWWRSEEAQ | < -0.25 |
| VADDIWEELLSEAL | 5.63 |
| MLSSHGFSVDTSALLDRFSP | -0.229 |
| EDDDEFSLWDPML | 3.13 |
| TMDDVGNYLFDD | < -0.25 |
| MLSSHGFSVDTSALLDKFSP | -0.227 |
| PFPDTQDDFLKWWRSEEAA | -0.236 |
| LFDYDFLFGNDKA | 0.271 |
| VKDDIWEELLSEDL | -0.23 |
| DEPSWIIELLEKDG | -0.161 |
| TMDDVYNYLRDD | < -0.25 |
| MLSSHGFSVDTSALLDLASP | -0.145 |
| DFDLDMRGDFDLDMLG | 1.6 |
| PEFPGIELQELQELAALLQQ | 0.178 |
| PFPDRQDDFLKWWRSEEAQ | -0.241 |

| Sequence | growth estimate |
| --- | --- |
| PEFPGIELQELPELQALLQQ | -0.22 |
| PFPDTQDDFLKPWRSEEAQ | < -0.25 |
| DLDASWDYIFETTE | 0.507 |
| EFNDLLDLGFILSN | -0.244 |
| PEFPGIELQELQELRALLQQ | < -0.25 |
| VADDIWEELLSEDP | 0.229 |
| MLSSHGFSVDTSAGLDLFSP | -0.207 |
| MLSSHGRSVDTSALLDLFSP | -0.248 |
| RFPDTQDDFLKWWRSEEAQ | -0.221 |
| PEFPGIELQELQELQAPLQQ | < -0.25 |
| EDDDEFSLWDGML | 0.875 |
| PMDDVYNYLFDD | 1.41 |
| MLSSHGPSVDTSALLDLFSP | -0.216 |
| DLAESWDYIFETTE | 0.371 |
| TGDDVYNYLFDD | -0.0152 |
| VADGIWEELLSEDL | -0.0444 |
| PEFPGIELQALQELQALLQQ | 0.169 |
| MLSSHGFSVDGSALLDLFSP | -0.0946 |
| KFPDTQDDFLKWWRSEEAQ | -0.0955 |
| AFDYDFLFGNDFA | 10.5 |
| VADDIPEELLSEDL | -0.228 |
| MLSSHGFSVDTSALLDLFSP | 0.0347 |
| TMDDPYNYLFDD | -0.0775 |
| TMDDGYNYLFDD | < -0.25 |

| Sequence | growth estimate |
| --- | --- |
| QQNGEPAQLWDFN | -0.235 |
| DELKWIIELLEKDG | -0.0445 |
| TMDDVYRYLFDD | 1.71 |
| PFPDTQDDFLKWWRSEEAR | -0.248 |
| MLSSPGFSVDTSALLDLFSP | 0.169 |
| DFDLDMAGDFDLDMLG | 11.3 |
| TMDDVYNYKFDD | < -0.25 |
| LFDYDGLFGNDFA | 0.114 |
| VADDIWEELLSEGL | 10.4 |
| EFNDLLDLDFILRN | 5.09 |
| EFNDLLDLDAILSN | 0.353 |
| MLSSHGFAVDTSALLDLFSP | -0.142 |
| EDDDPFSLWDSML | 2.41 |
| EDDDEFSLWGSML | 1.19 |
| MLSSHGFSRDTSALLDLFSP | < -0.25 |
| MLSAHGFSVDTSALLDLFSP | -0.231 |
| PFPDTQPDFLKWWRSEEAQ | -0.22 |
| VADDIWKELLSEDL | 3.97 |
| AFNDLLDLDFILSN | 0.948 |
| PEGPGIELQELQELQALLQQ | < -0.25 |
| DFDLDMLGDFDLDMGG | 16.5 |
| DELSWIIELLAKDG | -0.221 |
| DELSWIIEALEKDG | 0.0037 |
| RLDESWDYIFETTE | -0.191 |

| Sequence | growth estimate |
| --- | --- |
| LFPYDFLFGNDFA | 1.32 |
| DLDESWKYIFETTE | -0.0397 |
| DFDLDMLGDFDLDMKG | 3.28 |
| DLGESWDYIFETTE | 0.355 |
| TMDDVYNYLGDD | -0.149 |
| TMDDVYNYLFAD | 1.32 |
| EFNDLLDLDFILSA | -0.12 |
| PEFPGKELQELQELQALLQQ | < -0.25 |
| EDDDEFSLWPSML | -0.166 |
| MLSSHGGSVDTSALLDLFSP | -0.112 |
| PFPDTQDDFLKWWGSEEAQ | 1.82 |
| DELAWIIELLEKDG | 0.883 |
| DELSWAIELLEKDG | < -0.25 |
| DELSWIIELLEKAG | < -0.25 |
| MLSSHGFSGDTSALLDLFSP | -0.115 |
| DELSWGIELLEKDG | < -0.25 |
| DFDLGMLGDFDLDMLG | 12.4 |
| LFDYDFLFGNAFA | 0.211 |
| QQNGEIAQAWDFN | < -0.25 |
| VADDIWEELLPEDL | -0.022 |
| EFNDLLDLDFIASN | 0.58 |
| PFPDAQDDFLKWWRSEEAQ | -0.158 |
| MLSSHGFRVDTSALLDLFSP | -0.241 |
| TMDDVPNYLFDD | -0.232 |

| Sequence | growth estimate |
| --- | --- |
| VADDIWEELLSPDL | 0.482 |
| VADDIWEELLSEDG | 0.0334 |
| PEFPGIELQPLQELQALLQQ | -0.243 |
| PDDDEFSLWDSML | 1.67 |
| MLSSHGFSVDTSAPLDLFSP | -0.15 |
| LFDYGFLFGNDFA | 1.29 |
| DELSWIIALLEKDG | -0.104 |
| EDLYSILWSDVG | -0.0353 |
| DLDESWDYIFETTG | 2.74 |
| QQNGEIAQLWDPN | -0.246 |
| DLDESWDYIFETTE | 1.92 |
| EDLYPILWSDVY | < -0.25 |
| PFPDTGDDFLKWWRSEEAQ | -0.0916 |
| GDLYSILWSDVY | -0.212 |
| QQNGEIAQLKDFN | -0.215 |
| DFDLDMLGDFDLDMRG | 6.95 |
| VAGDIWEELLSEDL | 0.447 |
| MLSSHGFSVDRSALLDLFSP | -0.204 |
| PDLYSILWSDVY | -0.202 |
| DELSWIIGLLEKDG | -0.0196 |
| GELSWIIELLEKDG | -0.152 |
| DKDLDMLGDFDLDMLG | -0.127 |
| MLSSHPFSVDTSALLDLFSP | -0.195 |
| VADDAWEELLSEDL | -0.24 |

| Sequence | growth estimate |
| --- | --- |
| LGDYDFLFGNDFA | 2.6 |
| TMDDVYNRLFDD | -0.242 |
| QQGGEIAQLWDFN | 0.0021 |
| DFDLDKLGDFDLDMLG | 1.4 |
| MLASHGFSVDTSALLDLFSP | -0.0319 |
| DELSGIIELLEKDG | -0.238 |
| DLDESWDYIFETTP | 3.58 |
| VADRIWEELLSEDL | -0.176 |
| LFDADFLFGNDFA | 0.761 |
| PEFPGIELQELQALQALLQQ | < -0.25 |
| MLSSHGFSADTSALLDLFSP | -0.026 |
| RDLYSILWSDVY | -0.248 |
| MLSSHGFSVDTSALLDLRSP | < -0.25 |
| EDLYSIRWSDVY | -0.219 |
| DELSWIIELLEGDG | 2.77 |
| DELSWIIELLEADG | 1.64 |
| DELSWIIELLRKDG | < -0.25 |
| EDDDEFSGWDSML | 0.0815 |
| PEFPGIELQELAELQALLQQ | 0.131 |
| DELSWIIELLEKPG | 0.0373 |
| LFDYDFLKGNDFA | -0.139 |

Source: the supplement of paper PMC5949888
